T1: Human LRRC15 Protein, His Tag (Acro Biosystems) (human, UniProt Q8TF66 22-538, limits assumed)
T1 construct: Bought protein with His tag
T1 sequence (looked up): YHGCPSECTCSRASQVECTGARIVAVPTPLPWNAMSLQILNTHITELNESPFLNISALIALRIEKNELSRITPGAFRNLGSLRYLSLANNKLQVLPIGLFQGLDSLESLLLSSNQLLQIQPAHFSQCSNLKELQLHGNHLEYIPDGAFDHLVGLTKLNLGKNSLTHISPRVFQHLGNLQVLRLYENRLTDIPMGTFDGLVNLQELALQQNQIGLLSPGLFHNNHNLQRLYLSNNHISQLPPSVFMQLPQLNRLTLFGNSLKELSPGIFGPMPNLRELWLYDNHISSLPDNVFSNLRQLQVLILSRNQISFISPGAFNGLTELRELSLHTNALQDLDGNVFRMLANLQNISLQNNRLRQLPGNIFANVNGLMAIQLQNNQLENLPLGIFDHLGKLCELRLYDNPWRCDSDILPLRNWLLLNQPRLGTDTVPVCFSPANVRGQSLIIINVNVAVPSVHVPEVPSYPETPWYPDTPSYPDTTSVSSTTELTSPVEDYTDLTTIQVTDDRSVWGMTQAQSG

B1: MYT6130 (antibody, V domains shown)
VH: QEQLEESGGDLVKPGASLTLTCTASGLDFRRTNYICWVRQAPGKGLEWIGCIYIADVVHYYASWAKGRFTFSKTSSTTVTLQMTSLTAADTATYFCARGADGGFVYGMDLWGPGTLVTVSS
VL: DVVMTQTPASVSEPVGGTVTIKCQASQSIGNHLSWYQQKPGQRPKRLIYSASTLPSGVPSRFKGAGSGTEFTLTISDLESADAATYYCQNNYWLAGYGHPFGGGTEVVVK
notes: rabbit 15G7 VL Y32H; chimeric, human constant regions
B2: MYT6134 (antibody, V domains shown)
VH: QEQLEESGGDLVKPGASLTLTCTASGLDFRRTNYICWVRQAPGKGLEWIGCIYIADVVHYYASWAKGRFTFSKTSSTTVTLQMTSLTAADTATYFCARGADGGFVYGMDLWGPGTLVTVSS
VL: DVVMTQTPASVSEPVGGTVTIKCQASQSIGNYLSWYQQKPGQRPKRLIYSHSTLPSGVPSRFKGAGSGTEFTLTISDLESADAATYYCQNNYWLAGYGHPFGGGTEVVVK
notes: rabbit 15G7 VL A51H; chimeric, human constant regions
B3: MYT6135 (antibody, V domains shown)
VH: QEQLEESGGDLVKPGASLTLTCTASGLDFRRTNYICWVRQAPGKGLEWIGCIYIADVVHYYASWAKGRFTFSKTSSTTVTLQMTSLTAADTATYFCARGADGGFVYGMDLWGPGTLVTVSS
VL: DVVMTQTPASVSEPVGGTVTIKCQASQSIGNYLSWYQQKPGQRPKRLIYSAHTLPSGVPSRFKGAGSGTEFTLTISDLESADAATYYCQNNYWLAGYGHPFGGGTEVVVK
notes: rabbit 15G7 VL S52H; chimeric, human constant regions
B4: MYT6136 (antibody, V domains shown)
VH: QEQLEESGGDLVKPGASLTLTCTASGLDFRRTNYICWVRQAPGKGLEWIGCIYIADVVHYYASWAKGRFTFSKTSSTTVTLQMTSLTAADTATYFCARGADGGFVYGMDLWGPGTLVTVSS
VL: DVVMTQTPASVSEPVGGTVTIKCQASQSIGNYLSWYQQKPGQRPKRLIYSASHLPSGVPSRFKGAGSGTEFTLTISDLESADAATYYCQNNYWLAGYGHPFGGGTEVVVK
notes: rabbit 15G7 VL T53H; chimeric, human constant regions
B5: MYT6132 (antibody, V domains shown)
VH: QEQLEESGGDLVKPGASLTLTCTASGLDFRRTNYICWVRQAPGKGLEWIGCIYIADVVHYYASWAKGRFTFSKTSSTTVTLQMTSLTAADTATYFCARGADGGFVYGMDLWGPGTLVTVSS
VL: DVVMTQTPASVSEPVGGTVTIKCQASQSIGNYLHWYQQKPGQRPKRLIYSASTLPSGVPSRFKGAGSGTEFTLTISDLESADAATYYCQNNYWLAGYGHPFGGGTEVVVK
notes: rabbit 15G7 VL S34H; chimeric, human constant regions
B6: MYT6142 (antibody, V domains shown)
VH: QEQLEESGGDLVKPGASLTLTCTASGLDFRRTNYICWVRQAPGKGLEWIGCIYIADVVHYYASWAKGRFTFSKTSSTTVTLQMTSLTAADTATYFCARGADGGFVYGMDLWGPGTLVTVSS
VL: DVVMTQTPASVSEPVGGTVTIKCQASQSIGNYLSWYQQKPGQRPKRLIYSASTLPSGVPSRFKGAGSGTEFTLTISDLESADAATYYCQNHYWLAGYGHPFGGGTEVVVK
notes: rabbit 15G7 VL N91H; chimeric, human constant regions
B7: MYT6143 (antibody, V domains shown)
VH: QEQLEESGGDLVKPGASLTLTCTASGLDFRRTNYICWVRQAPGKGLEWIGCIYIADVVHYYASWAKGRFTFSKTSSTTVTLQMTSLTAADTATYFCARGADGGFVYGMDLWGPGTLVTVSS
VL: DVVMTQTPASVSEPVGGTVTIKCQASQSIGNYLSWYQQKPGQRPKRLIYSASTLPSGVPSRFKGAGSGTEFTLTISDLESADAATYYCQNNHWLAGYGHPFGGGTEVVVK
notes: rabbit 15G7 VL Y92H; chimeric, human constant regions
B8: MYT6144 (antibody, V domains shown)
VH: QEQLEESGGDLVKPGASLTLTCTASGLDFRRTNYICWVRQAPGKGLEWIGCIYIADVVHYYASWAKGRFTFSKTSSTTVTLQMTSLTAADTATYFCARGADGGFVYGMDLWGPGTLVTVSS
VL: DVVMTQTPASVSEPVGGTVTIKCQASQSIGNYLSWYQQKPGQRPKRLIYSASTLPSGVPSRFKGAGSGTEFTLTISDLESADAATYYCQNNYHLAGYGHPFGGGTEVVVK
notes: rabbit 15G7 VL W93H; chimeric, human constant regions
B9: MYT6140 (antibody, V domains shown)
VH: QEQLEESGGDLVKPGASLTLTCTASGLDFRRTNYICWVRQAPGKGLEWIGCIYIADVVHYYASWAKGRFTFSKTSSTTVTLQMTSLTAADTATYFCARGADGGFVYGMDLWGPGTLVTVSS
VL: DVVMTQTPASVSEPVGGTVTIKCQASQSIGNYLSWYQQKPGQRPKRLIYSASTLPSGVPSRFKGAGSGTEFTLTISDLESADAATYYCHNNYWLAGYGHPFGGGTEVVVK
notes: rabbit 15G7 VL Q89H; chimeric, human constant regions
B10: MYT6145 (antibody, V domains shown)
VH: QEQLEESGGDLVKPGASLTLTCTASGLDFRRTNYICWVRQAPGKGLEWIGCIYIADVVHYYASWAKGRFTFSKTSSTTVTLQMTSLTAADTATYFCARGADGGFVYGMDLWGPGTLVTVSS
VL: DVVMTQTPASVSEPVGGTVTIKCQASQSIGNYLSWYQQKPGQRPKRLIYSASTLPSGVPSRFKGAGSGTEFTLTISDLESADAATYYCQNNYWHAGYGHPFGGGTEVVVK
notes: rabbit 15G7 VL L94H; chimeric, human constant regions
B11: MYT6137 (antibody, V domains shown)
VH: QEQLEESGGDLVKPGASLTLTCTASGLDFRRTNYICWVRQAPGKGLEWIGCIYIADVVHYYASWAKGRFTFSKTSSTTVTLQMTSLTAADTATYFCARGADGGFVYGMDLWGPGTLVTVSS
VL: DVVMTQTPASVSEPVGGTVTIKCQASQSIGNYLSWYQQKPGQRPKRLIYSASTHPSGVPSRFKGAGSGTEFTLTISDLESADAATYYCQNNYWLAGYGHPFGGGTEVVVK
notes: rabbit 15G7 VL L54H; chimeric, human constant regions
B12: MYT6141 (antibody, V domains shown)
VH: QEQLEESGGDLVKPGASLTLTCTASGLDFRRTNYICWVRQAPGKGLEWIGCIYIADVVHYYASWAKGRFTFSKTSSTTVTLQMTSLTAADTATYFCARGADGGFVYGMDLWGPGTLVTVSS
VL: DVVMTQTPASVSEPVGGTVTIKCQASQSIGNYLSWYQQKPGQRPKRLIYSASTLPSGVPSRFKGAGSGTEFTLTISDLESADAATYYCQHNYWLAGYGHPFGGGTEVVVK
notes: rabbit 15G7 VL N90H; chimeric, human constant regions
B13: MYT6131 (antibody, V domains shown)
VH: QEQLEESGGDLVKPGASLTLTCTASGLDFRRTNYICWVRQAPGKGLEWIGCIYIADVVHYYASWAKGRFTFSKTSSTTVTLQMTSLTAADTATYFCARGADGGFVYGMDLWGPGTLVTVSS
VL: DVVMTQTPASVSEPVGGTVTIKCQASQSIGNYHSWYQQKPGQRPKRLIYSASTLPSGVPSRFKGAGSGTEFTLTISDLESADAATYYCQNNYWLAGYGHPFGGGTEVVVK
notes: rabbit 15G7 VL L33H; chimeric, human constant regions
B14: MYT6133 (antibody, V domains shown)
VH: QEQLEESGGDLVKPGASLTLTCTASGLDFRRTNYICWVRQAPGKGLEWIGCIYIADVVHYYASWAKGRFTFSKTSSTTVTLQMTSLTAADTATYFCARGADGGFVYGMDLWGPGTLVTVSS
VL: DVVMTQTPASVSEPVGGTVTIKCQASQSIGNYLSWYQQKPGQRPKRLIYHASTLPSGVPSRFKGAGSGTEFTLTISDLESADAATYYCQNNYWLAGYGHPFGGGTEVVVK
notes: rabbit 15G7 VL S50H; chimeric, human constant regions
B15: MYT6139 (antibody, V domains shown)
VH: QEQLEESGGDLVKPGASLTLTCTASGLDFRRTNYICWVRQAPGKGLEWIGCIYIADVVHYYASWAKGRFTFSKTSSTTVTLQMTSLTAADTATYFCARGADGGFVYGMDLWGPGTLVTVSS
VL: DVVMTQTPASVSEPVGGTVTIKCQASQSIGNYLSWYQQKPGQRPKRLIYSASTLPHGVPSRFKGAGSGTEFTLTISDLESADAATYYCQNNYWLAGYGHPFGGGTEVVVK
notes: rabbit 15G7 VL S56H; chimeric, human constant regions
B16: MYT6138 (antibody, V domains shown)
VH: QEQLEESGGDLVKPGASLTLTCTASGLDFRRTNYICWVRQAPGKGLEWIGCIYIADVVHYYASWAKGRFTFSKTSSTTVTLQMTSLTAADTATYFCARGADGGFVYGMDLWGPGTLVTVSS
VL: DVVMTQTPASVSEPVGGTVTIKCQASQSIGNYLSWYQQKPGQRPKRLIYSASTLHSGVPSRFKGAGSGTEFTLTISDLESADAATYYCQNNYWLAGYGHPFGGGTEVVVK
notes: rabbit 15G7 VL P55H; chimeric, human constant regions

The test deals with T1, Human LRRC15 Protein, His Tag (Acro …). Kind of test: BLI; dissociation pH 7.4 black, pH 5.4 grey [D00008 FIG. 1F]. The source says: For each individual plot, antigen binding proteins were captured on anti-human Fc biosensors and associated with LRRC15 at pH 7.4. Dissociation was at pH 7.4 (black) or pH 5.4 (grey). Major X-axis ticks=100 seconds, with left dashed vertical line=0 seconds. Major Y-axis ticks=0.5 nm and octet plots are shown MYT5712 and MYT6080-MYT6121.
Multiple LRRC15-binding monoclonal antibodies have been described in the literature and can be used as a template for engineering pH-dependent binding. We selected discovery RabMAb clone 15G7 (rabbit VH SEQ ID NO: 378, rabbit VL SEQ ID NO: 451; humanized VH SEQ ID NO: 382, humanized VL SEQ ID NO: 455) as a LRRC15-binding monoclonal antibody for pH-engineering via histidine scanning. […] To generate pH-dependent sequence variants, individual amino acid residues within the heavy chain CDRs were systematically substituted with a histidine (or alanine if H was already present in a given position; e.g., MYT6099), one at a time (rabbit, MYT6080-6121). Desirable mutations were transferred to a humanized framework (humanized, MYT 8387-8411). After allowing for four days of protein expression, cell culture supernatants were collected, quantified by SDS-PAGE analysis, and the pH dependence of the variant was evaluated using biolayer interferometry (BLI) on an Octet RED 96e instrument. Briefly, cell culture supernatants were diluted based on qualitative expression level of the variant determined by visual examination of SDS-PAGE gels, 5 μL of cell culture supernatant was diluted into 195 μL of 1×PBST, pH 7.4 for high expressors, 25 μL of cell culture supernatant was diluted into 175 μL of 1×PBST, pH 7.4 for medium expressors and 100 μL of cell culture supernatant was diluted into 100 μL of 1×PBST, pH 7.4 for low expressors for loading onto the sensor tips.
A general note: In BLI a coated tip is dipped into the sample, and binding shifts an interference pattern.
Regarding B1, the binding result is given as “binds”.
Turning to B2, the binding result is listed as “binds”.
As for B3, the entry is “binds”; as for B4, “binds”; as for B5, “binds”.
B6: the binding result was “binds”.
Take B7: the binding result is listed as “binds”.
For B8, the binding result is listed as “binds”.
With B9, the binding result was “binds”.
Next, B10: “no binding (tested: 50 nM LRRC15)”; B11: “binds”.
Next, B12: “no binding (tested: 50 nM LRRC15)”.
As for B13, the entry is “binds”; as for B14, “binds”; as for B15, “binds”.
For the molecule B16, the binding result is given as “binds”.

The values above are taken from US20250352661A1 (MYTHIC THERAPEUTICS, published 2025).
